Consider 47 molecules from patent publication US20180155451A1 (published 2018).

The chains are these.
T1: FcγRIIa H (human, UniProt P12318 34-217)
T1 construct: extracellular domain; also called FcgRIIa H; FcγRIIa type H; not shown: His tag attached to the C terminus
T1 sequence (looked up): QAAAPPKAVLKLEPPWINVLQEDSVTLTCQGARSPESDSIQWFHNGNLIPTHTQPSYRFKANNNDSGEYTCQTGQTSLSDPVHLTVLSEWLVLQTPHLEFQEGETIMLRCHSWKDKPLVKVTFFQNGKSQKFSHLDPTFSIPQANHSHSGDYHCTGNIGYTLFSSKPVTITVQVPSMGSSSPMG

T2: FcγRIIb (human, UniProt P31994 43-217)
T2 construct: extracellular domain; also called FcgRIIb; 2b; not shown: His tag attached to the C terminus
T2 sequence (looked up): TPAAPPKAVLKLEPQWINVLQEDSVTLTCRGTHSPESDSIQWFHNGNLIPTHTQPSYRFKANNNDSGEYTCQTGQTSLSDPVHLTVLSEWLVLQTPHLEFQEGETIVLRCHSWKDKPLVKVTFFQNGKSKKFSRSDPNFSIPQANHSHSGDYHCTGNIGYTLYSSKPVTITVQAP

B1: GpH7-B3 variant P271_02A/GpL16-k0 (Ho Ab) (antibody, human IgG1, kappa)
heavy: not shown
light: DIVMTQSPLSLPVTPGEPASISCQASESLVHSNRNTYLHWYLQKPGQSPQLLIYKVSNRFSGVPDRFSGSGSGTDFTLKISRVEAEDVGVYYCSQNTHVPPTFGQGTKVEIERTVAAPSVFIFPPSDEQLKSGTASVVCLLNNFYPREAKVQWKVDNALQSGNSQESVTEQDSKDSTYSLSSTLTLSKADYEKHKVYACEVTHQGLSSPVTKSFNRGEC
notes: Ho Ab: alteration in both H chains
B2: GpH7-B3 variant E269_04F/GpL16-k0 (Ho Ab) (antibody, human IgG1, kappa)
heavy: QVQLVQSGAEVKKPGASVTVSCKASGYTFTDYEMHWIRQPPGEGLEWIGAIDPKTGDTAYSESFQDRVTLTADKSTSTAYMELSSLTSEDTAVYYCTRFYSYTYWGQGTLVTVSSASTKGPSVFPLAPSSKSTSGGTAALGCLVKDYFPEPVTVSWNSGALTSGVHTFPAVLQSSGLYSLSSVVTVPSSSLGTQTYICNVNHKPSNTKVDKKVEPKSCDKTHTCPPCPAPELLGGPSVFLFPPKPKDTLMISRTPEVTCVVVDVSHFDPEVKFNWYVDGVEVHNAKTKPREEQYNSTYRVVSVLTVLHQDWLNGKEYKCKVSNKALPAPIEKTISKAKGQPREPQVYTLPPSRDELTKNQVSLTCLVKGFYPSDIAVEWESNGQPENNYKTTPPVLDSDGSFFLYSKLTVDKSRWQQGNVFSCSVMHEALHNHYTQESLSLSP
light: B1 light
notes: as for B1
B3: GpH7-B3 variant A327_09D/GpL16-k0 (Ho Ab) (antibody, human IgG1, kappa)
heavy: not shown
light: B1 light
notes: as for B1
B4: GpH7-B3 variant A330_14T/GpL16-k0 (Ho Ab) (antibody, human IgG1, kappa)
heavy: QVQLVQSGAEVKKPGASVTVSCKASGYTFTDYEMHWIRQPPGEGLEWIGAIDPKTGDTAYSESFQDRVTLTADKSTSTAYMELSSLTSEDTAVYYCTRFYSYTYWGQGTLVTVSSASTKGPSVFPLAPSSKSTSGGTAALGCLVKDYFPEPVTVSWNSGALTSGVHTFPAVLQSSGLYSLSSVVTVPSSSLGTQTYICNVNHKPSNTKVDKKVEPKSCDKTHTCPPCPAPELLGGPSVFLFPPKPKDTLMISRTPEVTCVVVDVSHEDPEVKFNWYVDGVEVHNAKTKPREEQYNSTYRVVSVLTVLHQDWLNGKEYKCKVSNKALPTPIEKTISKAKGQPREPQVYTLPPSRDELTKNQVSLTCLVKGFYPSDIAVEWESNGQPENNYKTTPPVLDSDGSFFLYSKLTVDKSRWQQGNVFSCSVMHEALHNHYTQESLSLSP
light: B1 light
notes: as for B1
B5: GpH7-B3 variant A330_08L/GpL16-k0 (Ho Ab) (antibody, human IgG1, kappa)
heavy: not shown
light: B1 light
notes: Ho Ab: alteration in both H chains; also called GpH7-B3-20-08L/GpL16-k0
B6: GpH7-B3 variant I336_04F/GpL16-k0 (Ho Ab) (antibody, human IgG1, kappa)
heavy: not shown
light: B1 light
notes: as for B1
B7: GpH7-B3 variant E333_01G/GpL16-k0 (Ho Ab) (antibody, human IgG1, kappa)
heavy: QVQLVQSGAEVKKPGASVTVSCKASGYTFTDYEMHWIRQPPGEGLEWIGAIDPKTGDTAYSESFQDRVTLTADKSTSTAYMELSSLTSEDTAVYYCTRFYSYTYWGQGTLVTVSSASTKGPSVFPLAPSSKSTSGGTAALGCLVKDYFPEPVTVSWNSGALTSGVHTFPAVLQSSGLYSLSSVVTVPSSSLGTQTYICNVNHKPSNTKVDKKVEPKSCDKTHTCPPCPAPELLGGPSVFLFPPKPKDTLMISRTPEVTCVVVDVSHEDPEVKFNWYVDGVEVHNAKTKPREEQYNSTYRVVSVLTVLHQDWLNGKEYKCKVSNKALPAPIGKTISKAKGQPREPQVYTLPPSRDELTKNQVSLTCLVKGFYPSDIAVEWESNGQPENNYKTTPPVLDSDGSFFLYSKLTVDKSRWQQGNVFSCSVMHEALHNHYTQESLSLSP
light: B1 light
notes: as for B1
B8: GpH7-B3 variant P271_06M/GpL16-k0 (Ho Ab) (antibody, human IgG1, kappa)
heavy: not shown
light: B1 light
notes: as for B1
B9: GpH7-B3 variant P271_20W/GpL16-k0 (Ho Ab) (antibody, human IgG1, kappa)
heavy: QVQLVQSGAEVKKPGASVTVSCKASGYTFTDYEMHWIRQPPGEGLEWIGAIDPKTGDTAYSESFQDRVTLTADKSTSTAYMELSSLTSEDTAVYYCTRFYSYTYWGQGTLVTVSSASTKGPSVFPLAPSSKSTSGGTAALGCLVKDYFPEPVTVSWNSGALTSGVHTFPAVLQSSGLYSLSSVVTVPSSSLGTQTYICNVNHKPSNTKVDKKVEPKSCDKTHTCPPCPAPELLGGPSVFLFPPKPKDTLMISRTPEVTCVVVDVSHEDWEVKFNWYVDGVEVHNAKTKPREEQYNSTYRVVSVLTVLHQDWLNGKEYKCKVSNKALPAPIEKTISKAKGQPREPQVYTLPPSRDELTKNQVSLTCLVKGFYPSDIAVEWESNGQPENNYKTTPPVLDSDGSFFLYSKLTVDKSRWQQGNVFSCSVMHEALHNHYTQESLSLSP
light: B1 light
notes: as for B1
B10: GpH7-B3 variant P271_11K/GpL16-k0 (Ho Ab) (antibody, human IgG1, kappa)
heavy: not shown
light: B1 light
notes: as for B1
B11: GpH7-B3 variant E269_08L/GpL16-k0 (Ho Ab) (antibody, human IgG1, kappa)
heavy: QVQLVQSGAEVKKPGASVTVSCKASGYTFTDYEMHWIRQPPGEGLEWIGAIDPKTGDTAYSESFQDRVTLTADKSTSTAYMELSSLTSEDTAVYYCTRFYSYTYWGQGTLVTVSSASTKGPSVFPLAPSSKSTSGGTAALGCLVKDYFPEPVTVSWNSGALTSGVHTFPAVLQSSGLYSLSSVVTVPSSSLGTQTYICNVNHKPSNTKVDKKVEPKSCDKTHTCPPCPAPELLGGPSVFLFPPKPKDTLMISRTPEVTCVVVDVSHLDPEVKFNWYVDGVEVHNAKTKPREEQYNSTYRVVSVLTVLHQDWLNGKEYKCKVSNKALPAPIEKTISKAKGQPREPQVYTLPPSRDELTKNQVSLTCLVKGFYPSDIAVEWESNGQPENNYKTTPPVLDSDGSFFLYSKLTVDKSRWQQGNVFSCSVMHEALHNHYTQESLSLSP
light: B1 light
notes: as for B1
B12: GpH7-B3 variant G236_20W/GpL16-k0 (Ho Ab) (antibody, human IgG1, kappa)
heavy: not shown
light: B1 light
notes: as for B1
B13: GpH7-B3 variant P271_04F/GpL16-k0 (Ho Ab) (antibody, human IgG1, kappa)
heavy: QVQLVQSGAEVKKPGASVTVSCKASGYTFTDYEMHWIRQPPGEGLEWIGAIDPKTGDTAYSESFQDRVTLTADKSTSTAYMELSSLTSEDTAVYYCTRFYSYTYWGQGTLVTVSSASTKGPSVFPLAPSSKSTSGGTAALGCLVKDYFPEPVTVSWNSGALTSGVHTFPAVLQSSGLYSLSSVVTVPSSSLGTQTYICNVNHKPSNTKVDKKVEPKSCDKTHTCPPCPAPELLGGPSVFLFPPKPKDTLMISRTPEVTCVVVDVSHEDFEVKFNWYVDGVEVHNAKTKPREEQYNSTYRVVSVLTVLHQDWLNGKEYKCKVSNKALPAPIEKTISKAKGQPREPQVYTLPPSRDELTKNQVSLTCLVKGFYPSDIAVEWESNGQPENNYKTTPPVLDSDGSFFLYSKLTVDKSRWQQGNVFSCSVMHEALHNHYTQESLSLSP
light: B1 light
notes: as for B1
B14: GpH7-B3 variant K326_14T/GpL16-k0 (Ho Ab) (antibody, human IgG1, kappa)
heavy: not shown
light: B1 light
notes: as for B1
B15: GpH7-B3 variant Q295_02A/GpL16-k0 (Ho Ab) (antibody, human IgG1, kappa)
heavy: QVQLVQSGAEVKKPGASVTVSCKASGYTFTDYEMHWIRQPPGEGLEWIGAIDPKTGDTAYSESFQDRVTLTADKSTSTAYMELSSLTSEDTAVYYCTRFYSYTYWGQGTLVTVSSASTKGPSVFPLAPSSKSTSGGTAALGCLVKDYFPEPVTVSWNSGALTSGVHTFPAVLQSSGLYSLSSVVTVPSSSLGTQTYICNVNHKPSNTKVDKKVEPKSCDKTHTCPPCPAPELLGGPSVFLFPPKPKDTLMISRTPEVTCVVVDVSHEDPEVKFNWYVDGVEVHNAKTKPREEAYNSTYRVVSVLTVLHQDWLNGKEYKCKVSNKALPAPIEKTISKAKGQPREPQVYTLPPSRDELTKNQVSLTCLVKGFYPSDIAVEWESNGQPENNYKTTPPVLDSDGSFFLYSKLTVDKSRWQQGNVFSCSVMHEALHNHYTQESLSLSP
light: B1 light
notes: as for B1
B16: GpH7-B3 variant E269_15Y/GpL16-k0 (Ho Ab) (antibody, human IgG1, kappa)
heavy: not shown
light: B1 light
notes: as for B1
B17: GpH7-B3 variant P271_03V/GpL16-k0 (Ho Ab) (antibody, human IgG1, kappa)
heavy: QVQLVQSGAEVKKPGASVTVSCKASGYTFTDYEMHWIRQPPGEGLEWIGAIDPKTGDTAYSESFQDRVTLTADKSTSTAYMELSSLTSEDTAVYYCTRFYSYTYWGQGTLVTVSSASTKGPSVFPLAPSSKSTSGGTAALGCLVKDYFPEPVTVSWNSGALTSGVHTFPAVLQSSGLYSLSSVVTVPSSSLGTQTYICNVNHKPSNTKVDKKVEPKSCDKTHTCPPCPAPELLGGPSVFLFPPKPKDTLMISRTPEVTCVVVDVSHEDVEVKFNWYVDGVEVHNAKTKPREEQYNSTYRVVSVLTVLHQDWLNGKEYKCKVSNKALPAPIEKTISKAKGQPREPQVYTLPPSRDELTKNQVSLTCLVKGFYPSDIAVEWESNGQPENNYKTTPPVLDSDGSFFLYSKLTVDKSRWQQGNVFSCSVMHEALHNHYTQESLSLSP
light: B1 light
notes: as for B1
B18: GpH7-B3 variant I336_10E/GpL16-k0 (Ho Ab) (antibody, human IgG1, kappa)
heavy: not shown
light: B1 light
notes: as for B1
B19: GpH7-B3 variant K334_10E/GpL16-k0 (Ho Ab) (antibody, human IgG1, kappa)
heavy: not shown
light: B1 light
notes: as for B1
B20: GpH7-B3 variant I336_02A/GpL16-k0 (Ho Ab) (antibody, human IgG1, kappa)
heavy: not shown
light: B1 light
notes: as for B1
B21: GpH7-B3 variant K326_16H/GpL16-k0 (Ho Ab) (antibody, human IgG1, kappa)
heavy: not shown
light: B1 light
notes: as for B1
B22: GpH7-B3 variant E333_13S/GpL16-k0 (Ho Ab) (antibody, human IgG1, kappa)
heavy: not shown
light: B1 light
notes: as for B1
B23: GpH7-B3 variant Q295_03V/GpL16-k0 (Ho Ab) (antibody, human IgG1, kappa)
heavy: not shown
light: B1 light
notes: as for B1
B24: GpH7-B3 variant I336_03V/GpL16-k0 (Ho Ab) (antibody, human IgG1, kappa)
heavy: not shown
light: B1 light
notes: as for B1
B25: GpH7-B3 variant I336_06M/GpL16-k0 (Ho Ab) (antibody, human IgG1, kappa)
heavy: not shown
light: B1 light
notes: as for B1
B26: GpH7-B3 variant P271_07I/GpL16-k0 (Ho Ab) (antibody, human IgG1, kappa)
heavy: not shown
light: B1 light
notes: as for B1
B27: GpH7-B3 variant P271_13S/GpL16-k0 (Ho Ab) (antibody, human IgG1, kappa)
heavy: not shown
light: B1 light
notes: as for B1
B28: GpH7-B3 variant E269_06M/GpL16-k0 (Ho Ab) (antibody, human IgG1, kappa)
heavy: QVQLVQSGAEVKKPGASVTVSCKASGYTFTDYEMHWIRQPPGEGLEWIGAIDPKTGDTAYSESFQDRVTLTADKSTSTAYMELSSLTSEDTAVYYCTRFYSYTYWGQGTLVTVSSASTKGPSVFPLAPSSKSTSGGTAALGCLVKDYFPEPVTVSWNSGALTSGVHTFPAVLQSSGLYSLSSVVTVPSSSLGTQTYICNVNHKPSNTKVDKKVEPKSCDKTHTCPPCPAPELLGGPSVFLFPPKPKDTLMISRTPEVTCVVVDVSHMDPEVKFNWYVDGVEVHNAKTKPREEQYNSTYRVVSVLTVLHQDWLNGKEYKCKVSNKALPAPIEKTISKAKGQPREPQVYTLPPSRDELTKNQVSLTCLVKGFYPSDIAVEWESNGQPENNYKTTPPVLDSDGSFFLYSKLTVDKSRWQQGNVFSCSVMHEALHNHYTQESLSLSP
light: B1 light
notes: as for B1
B29: GpH7-B3 variant I336_01G/GpL16-k0 (Ho Ab) (antibody, human IgG1, kappa)
heavy: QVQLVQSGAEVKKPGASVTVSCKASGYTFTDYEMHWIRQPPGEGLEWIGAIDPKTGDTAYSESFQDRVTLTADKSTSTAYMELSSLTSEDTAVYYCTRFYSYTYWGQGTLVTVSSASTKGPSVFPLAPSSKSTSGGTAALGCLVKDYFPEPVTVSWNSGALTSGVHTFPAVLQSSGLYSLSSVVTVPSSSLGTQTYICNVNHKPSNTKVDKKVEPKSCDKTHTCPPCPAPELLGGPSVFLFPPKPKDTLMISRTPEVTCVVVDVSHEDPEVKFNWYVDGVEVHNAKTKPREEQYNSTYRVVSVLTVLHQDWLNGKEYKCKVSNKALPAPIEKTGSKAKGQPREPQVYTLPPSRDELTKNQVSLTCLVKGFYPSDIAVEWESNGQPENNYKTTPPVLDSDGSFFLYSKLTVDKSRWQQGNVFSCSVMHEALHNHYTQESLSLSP
light: B1 light
notes: as for B1
B30: GpH7-B3 variant A330_09D/GpL16-k0 (Ho Ab) (antibody, human IgG1, kappa)
heavy: not shown
light: B1 light
notes: as for B1
B31: GpH7-B3 variant I336_18N/GpL16-k0 (Ho Ab) (antibody, human IgG1, kappa)
heavy: not shown
light: B1 light
notes: as for B1
B32: GpH7-B3 variant P271_12R/GpL16-k0 (Ho Ab) (antibody, human IgG1, kappa)
heavy: not shown
light: B1 light
notes: as for B1
B33: GpH7-B3 variant K326_15Y/GpL16-k0 (Ho Ab) (antibody, human IgG1, kappa)
heavy: not shown
light: B1 light
notes: as for B1
B34: GpH7-A5/GpH7-B3 variant S324_02A/GpL16-k0 (antibody, human IgG1, kappa)
heavy 1: not shown
heavy 2: not shown
light: B1 light
notes: Heterodimerized IgG1, mutation in the GpH7-B3 chain only; also called He Ab
B35: GpH7-A5/GpH7-B3 variant S324_15Y/GpL16-k0 (antibody, human IgG1, kappa)
heavy 1: not shown
heavy 2: not shown
light: B1 light
notes: as for B34
B36: GpH7-A5/GpH7-B3 variant Y300_07I/GpL16-k0 (antibody, human IgG1, kappa)
heavy 1: not shown
heavy 2: not shown
light: B1 light
notes: as for B34
B37: GpH7-A5/GpH7-B3 variant Y300_08L/GpL16-k0 (antibody, human IgG1, kappa)
heavy 1: not shown
heavy 2: not shown
light: B1 light
notes: as for B34
B38: GpH7-A5/GpH7-B3 variant Y296_04F/GpL16-k0 (antibody, human IgG1, kappa)
heavy 1: not shown
heavy 2: not shown
light: B1 light
notes: as for B34
B39: GpH7-A5/GpH7-B3 variant Y300_06M/GpL16-k0 (antibody, human IgG1, kappa)
heavy 1: not shown
heavy 2: not shown
light: B1 light
notes: as for B34
B40: GpH7-A5/GpH7-B3 variant S324_04F/GpL16-k0 (antibody, human IgG1, kappa)
heavy 1: not shown
heavy 2: not shown
light: B1 light
notes: as for B34
B41: GpH7-A5/GpH7-B3 variant S324_10E/GpL16-k0 (antibody, human IgG1, kappa)
heavy 1: not shown
heavy 2: not shown
light: B1 light
notes: as for B34
B42: GpH7-A5/GpH7-B3 variant S324_20W/GpL16-k0 (antibody, human IgG1, kappa)
heavy 1: not shown
heavy 2: not shown
light: B1 light
notes: as for B34
B43: GpH7-A5/GpH7-B3 variant S324_16H/GpL16-k0 (antibody, human IgG1, kappa)
heavy 1: not shown
heavy 2: not shown
light: B1 light
notes: as for B34
B44: GpH7-A5/GpH7-B3 variant Y296_09D/GpL16-k0 (antibody, human IgG1, kappa)
heavy 1: not shown
heavy 2: not shown
light: B1 light
notes: as for B34
B45: GpH7-A5/GpH7-B3 variant Y296_16H/GpL16-k0 (antibody, human IgG1, kappa)
heavy 1: not shown
heavy 2: not shown
light: B1 light
notes: as for B34
B46: GpH7-A5/GpH7-B3 variant Y296_18N/GpL16-k0 (antibody, human IgG1, kappa)
heavy 1: not shown
heavy 2: not shown
light: B1 light
notes: as for B34
B47: GpH7-A5/GpH7-B3 variant S324_09D/GpL16-k0 (antibody, human IgG1, kappa)
heavy 1: not shown
heavy 2: not shown
light: B1 light
notes: as for B34

The first experiment deals with T3, FcγRIa extracellular domain with C-terminal His tag (human, UniProt P12314 16-292).
T3 construct: extracellular domain; Expressed in FreeStyle293 cells; analyte in Biacore; also called FcgRI; FcgRIa
T3 sequence (P12314 16-292): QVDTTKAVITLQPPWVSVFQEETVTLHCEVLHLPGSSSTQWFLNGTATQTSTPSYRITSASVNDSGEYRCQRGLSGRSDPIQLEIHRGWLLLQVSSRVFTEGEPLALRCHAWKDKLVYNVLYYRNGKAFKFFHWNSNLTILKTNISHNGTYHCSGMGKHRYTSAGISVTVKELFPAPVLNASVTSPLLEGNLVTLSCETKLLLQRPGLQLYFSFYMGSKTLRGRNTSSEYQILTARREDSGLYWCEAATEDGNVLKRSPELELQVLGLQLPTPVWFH
Briefly: SPR Biacore, antibody captured, FcγRIa analyte; vs GpH7-B3/GpL16-k0 = 100.
For B1, the Ho/Con_1a was 102 relative (control = 100).
Same read-out and setting: then B2, with 102 relative (control = 100).
The same measure, in the same setting: then B3, with 102 relative (control = 100); and B4, with 105 relative (control = 100); and B5, with 106 relative (control = 100).
Turning to B6, the Ho/Con_1a is 104 relative (control = 100).
Same read-out and setting: under B7 stands 100 relative (control = 100); under B8, 102 relative (control = 100); under B9, 102 relative (control = 100).
For the molecule B10, the Ho/Con_1a is 101 relative (control = 100).
Still for that read-out and setting: under B11 stands 101 relative (control = 100).
Still for that read-out and setting: under B12 stands 104 relative (control = 100).
Same read-out and setting: under B13 stands 100 relative (control = 100); under B14, 103 relative (control = 100); under B15, 104 relative (control = 100).
On to B16, for which the Ho/Con_1a was 100 relative (control = 100).
Same read-out and setting: under B17 stands 102 relative (control = 100); under B18, 107 relative (control = 100).
The same measure, in the same setting: then B19, with 107 relative (control = 100); and B20, with 103 relative (control = 100); and B21, with 101 relative (control = 100).
The same measure, in the same setting: under B22 stands 101 relative (control = 100); under B23, 102 relative (control = 100); under B24, 105 relative (control = 100).
B25: the Ho/Con_1a is 104 relative (control = 100).
With B26, the Ho/Con_1a was 102 relative (control = 100).
Same read-out and setting: then B27, with 101 relative (control = 100).
On the same count and under the same terms, under B28 stands 101 relative (control = 100).
The same measure, in the same setting: under B29 stands 104 relative (control = 100); under B30, 108 relative (control = 100); under B31, 104 relative (control = 100).
Take B32: the Ho/Con_1a is 101 relative (control = 100).
The same measure, in the same setting: under B33 stands 101 relative (control = 100).

The target in a further experiment is T1, FcγRIIa H. In words: SPR (Biacore), antibody captured, FcγR as analyte; binding relative to GpH7-A5/GpH7-B3/GpL16-k0 = 100.
For B34, the He/Con_2aH came out at 102 control = 100.
Same read-out and setting: then B35, with 102 control = 100; and B36, with 108 control = 100; and B37, with 108 control = 100.
The same measure, in the same setting: then B38, with 100 control = 100; and B39, with 105 control = 100; and B40, with 101 control = 100.
Still for that read-out and setting: then B41, with 103 control = 100; and B42, with 103 control = 100.
Molecule B43 yielded a He/Con_2aH of 102 control = 100.
On the same count and under the same terms, under B44 stands 104 control = 100; under B45, 104 control = 100; under B46, 104 control = 100.
B47: the He/Con_2aH was 106 control = 100.

Another experiment addresses T2, FcγRIIb. Described as above.
Take B34: the He/Con_2b is 78.3 control = 100.
Same read-out and setting: under B35 stands 88.2 control = 100; under B36, 74.5 control = 100; under B37, 73.6 control = 100.
In the case of B38, the He/Con_2b was found to be 99.2 control = 100.
On the same count and under the same terms, then B39, with 84.3 control = 100; and B40, with 89.1 control = 100; and B41, with 77.4 control = 100.
On to B42, for which the He/Con_2b worked out at 87.5 control = 100.
The molecule B43 returned a He/Con_2b of 83.5 control = 100.
Same read-out and setting: then B44, with 98.9 control = 100; and B45, with 92.2 control = 100; and B46, with 91.5 control = 100.
The same measure, in the same setting: then B47, with 85.8 control = 100.
